This note sets out measurements from PMC13351892, “Tool antibody fragments reveal multiple conformations of the rhodopsin-Gi signaling complex” (Biophysical Journal, 2025).

The target in this assay is T1, human Gαi1 (human, UniProt P63096).
T1 construct: also called Gαi subunit; source: prepared as described (11)
Nature of the assay: cryo-EM structure; Rho-Gαiβγ-scFv16-Fab79, mixed 1:1.4:1.4 in 0.02% LMNG, purified by SEC; two conformations at 5.2 and 5.9 Å. Conditions: both partners purified. (In general: In gel filtration, larger molecules generally elute earlier.)

T1 sequence (P63096 whole entry): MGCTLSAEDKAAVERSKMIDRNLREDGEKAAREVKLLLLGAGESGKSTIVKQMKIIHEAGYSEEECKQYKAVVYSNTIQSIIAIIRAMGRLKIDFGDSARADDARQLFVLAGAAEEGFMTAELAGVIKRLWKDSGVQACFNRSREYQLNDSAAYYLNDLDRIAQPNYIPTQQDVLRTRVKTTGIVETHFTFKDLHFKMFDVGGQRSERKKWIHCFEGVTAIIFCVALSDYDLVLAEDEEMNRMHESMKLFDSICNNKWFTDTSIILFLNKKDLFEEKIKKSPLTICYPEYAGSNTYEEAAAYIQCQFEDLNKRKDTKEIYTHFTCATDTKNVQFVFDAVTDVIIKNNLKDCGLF

B1: Fab79 (Fab, V domains shown)
VH: EVQLVESGGGLVKPGGSLKLSCAASGFTFSSYAMSWVRQTPEKRLEWVATISSRGLYTYFPDSMKGRFTISRDNAKNTLSLQMSSLRSEDTAMYYCLRGGGYDADYWGQGTTLTVSS
VL: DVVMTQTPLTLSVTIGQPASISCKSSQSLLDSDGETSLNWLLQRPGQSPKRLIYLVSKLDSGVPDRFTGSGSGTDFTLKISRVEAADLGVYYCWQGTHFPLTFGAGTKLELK
notes: Fab79 heavy chain; also in the deposited models PDB 8P13 and 8P15; Fab79 light chain; source: prepared as described (11); from mice immunized with the purified Rho-Gαiβγ complex
With B1, the binding result is reported as “binds”.
